Some results are limits rather than exact numbers.

The source of these data is patent US20210030857A1 (NGM BIOPHARMACEUTICALS, published 2021).

Test [1] addresses T1, human beta klotho expressed on cells (human, UniProt Q86Z14 1-1044).
T1 construct: also called HuKLB overexpressing cells; Human KLB
T1 sequence: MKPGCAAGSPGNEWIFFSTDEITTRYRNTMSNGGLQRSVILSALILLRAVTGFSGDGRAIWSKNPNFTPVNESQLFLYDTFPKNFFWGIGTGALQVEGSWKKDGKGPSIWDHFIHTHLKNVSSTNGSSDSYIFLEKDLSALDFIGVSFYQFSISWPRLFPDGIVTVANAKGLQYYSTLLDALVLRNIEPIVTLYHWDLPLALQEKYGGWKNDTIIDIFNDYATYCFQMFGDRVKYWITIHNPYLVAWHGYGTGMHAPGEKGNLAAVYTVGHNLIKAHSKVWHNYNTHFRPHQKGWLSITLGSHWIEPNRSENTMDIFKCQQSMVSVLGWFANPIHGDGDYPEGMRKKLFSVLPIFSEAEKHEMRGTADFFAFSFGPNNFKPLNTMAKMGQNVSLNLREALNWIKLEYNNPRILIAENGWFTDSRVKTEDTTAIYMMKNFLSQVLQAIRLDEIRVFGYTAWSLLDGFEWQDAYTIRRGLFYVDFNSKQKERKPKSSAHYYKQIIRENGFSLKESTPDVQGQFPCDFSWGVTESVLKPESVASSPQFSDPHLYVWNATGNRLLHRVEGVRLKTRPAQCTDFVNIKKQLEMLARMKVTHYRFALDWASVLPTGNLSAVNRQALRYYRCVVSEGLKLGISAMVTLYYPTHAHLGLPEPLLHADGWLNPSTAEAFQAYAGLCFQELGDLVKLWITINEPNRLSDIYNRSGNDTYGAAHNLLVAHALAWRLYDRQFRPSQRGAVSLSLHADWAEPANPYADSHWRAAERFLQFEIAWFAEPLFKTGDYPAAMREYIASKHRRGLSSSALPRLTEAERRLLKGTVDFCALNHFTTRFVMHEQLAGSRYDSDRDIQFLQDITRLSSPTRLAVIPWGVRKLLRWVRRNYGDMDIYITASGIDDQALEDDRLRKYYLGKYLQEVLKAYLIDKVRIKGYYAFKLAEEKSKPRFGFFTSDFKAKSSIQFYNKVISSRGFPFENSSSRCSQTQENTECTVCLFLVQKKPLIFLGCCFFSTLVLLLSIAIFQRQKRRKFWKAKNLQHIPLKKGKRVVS
The test can be described thus: FACS competition on HuKLB-overexpressing cells; row antibody unlabelled; competitor 5H23-Alexa647 (labelled, EC10); MFI of the label. As for the experimental part: For example, for competition binding assays by FACS analysis, antibody standards were prepared that were conjugated to a fluorochrome using either A488 or A647 antibody labeling kit (Invitrogen) following manufacturer's instructions. A dose titration of the conjugated antibody standard was evaluated using HuKLB overexpressing cells. The plateau of the maximal signal of antibody binding is EC=100 and the background signal is EC=0. Competition by FACS against the fluorochrome labeled antibody was performed by pre-incubating HuKLB overexpressing cells with hybridoma supernatants for 15 minutes at room temperature. Without washing, an EC=10 concentration of A488 or A647 labelled antibody standard was added. EC=10 for an individual antibody was determined by 10% of signal using the maximum signal as (100%) and background signal as (0%). After 30 minutes at 4° C., cells are washed and analyzed by FACS. […] A partial competing antibody is one sample that show signal between labelled antibody alone and background. Antibodies that show complete competition against the same standard antibody are considered to be in the same bin.
Representative results are shown in Table 12 below reported as mean fluorescence intensity (MFI).

Test [2] deals with human beta klotho / human FGFR1c receptor complex on cells (human, UniProt Q86Z14 1-1044; P11362 22-822). The test can be described thus: cell-based or functional assay.
Sequence of human beta klotho / human FGFR1c receptor complex on cells (P11362 22-822 limits assumed, one chain of several): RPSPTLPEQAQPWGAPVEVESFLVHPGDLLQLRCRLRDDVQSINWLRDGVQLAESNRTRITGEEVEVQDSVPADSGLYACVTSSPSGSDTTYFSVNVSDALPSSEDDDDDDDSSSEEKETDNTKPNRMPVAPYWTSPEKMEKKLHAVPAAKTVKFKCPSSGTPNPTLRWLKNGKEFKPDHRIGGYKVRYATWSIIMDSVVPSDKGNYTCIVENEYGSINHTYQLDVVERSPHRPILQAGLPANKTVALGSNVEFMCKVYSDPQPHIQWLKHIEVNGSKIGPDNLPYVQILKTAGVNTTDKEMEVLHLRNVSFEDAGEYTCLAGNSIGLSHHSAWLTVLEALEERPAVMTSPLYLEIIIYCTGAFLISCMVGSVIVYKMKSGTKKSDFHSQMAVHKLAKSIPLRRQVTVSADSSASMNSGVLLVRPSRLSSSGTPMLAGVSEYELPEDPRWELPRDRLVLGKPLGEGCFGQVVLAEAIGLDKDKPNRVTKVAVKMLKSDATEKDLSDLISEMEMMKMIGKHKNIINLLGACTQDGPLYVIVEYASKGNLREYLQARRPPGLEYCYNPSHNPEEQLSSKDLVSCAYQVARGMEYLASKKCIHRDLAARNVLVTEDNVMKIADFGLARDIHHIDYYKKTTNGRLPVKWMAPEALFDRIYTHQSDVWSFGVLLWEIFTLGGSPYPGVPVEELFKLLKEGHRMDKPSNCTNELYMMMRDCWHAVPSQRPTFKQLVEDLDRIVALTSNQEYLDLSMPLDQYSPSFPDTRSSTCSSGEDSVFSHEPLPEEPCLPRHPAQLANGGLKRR
Test [3] addresses human beta klotho / human FGFR3c on L6 cells (human, UniProt Q86Z14 1-1044; P22607 23-806). The test can be described thus: cell-based or functional assay.
The target in test [4] is human beta klotho / human FGFR4 on L6 cells (human, UniProt Q86Z14 1-1044; P22455 22-802). As to the kind of experiment: cell-based or functional assay.
Sequence of human beta klotho / human FGFR4 on L6 cells (P22455 22-802, one chain of several): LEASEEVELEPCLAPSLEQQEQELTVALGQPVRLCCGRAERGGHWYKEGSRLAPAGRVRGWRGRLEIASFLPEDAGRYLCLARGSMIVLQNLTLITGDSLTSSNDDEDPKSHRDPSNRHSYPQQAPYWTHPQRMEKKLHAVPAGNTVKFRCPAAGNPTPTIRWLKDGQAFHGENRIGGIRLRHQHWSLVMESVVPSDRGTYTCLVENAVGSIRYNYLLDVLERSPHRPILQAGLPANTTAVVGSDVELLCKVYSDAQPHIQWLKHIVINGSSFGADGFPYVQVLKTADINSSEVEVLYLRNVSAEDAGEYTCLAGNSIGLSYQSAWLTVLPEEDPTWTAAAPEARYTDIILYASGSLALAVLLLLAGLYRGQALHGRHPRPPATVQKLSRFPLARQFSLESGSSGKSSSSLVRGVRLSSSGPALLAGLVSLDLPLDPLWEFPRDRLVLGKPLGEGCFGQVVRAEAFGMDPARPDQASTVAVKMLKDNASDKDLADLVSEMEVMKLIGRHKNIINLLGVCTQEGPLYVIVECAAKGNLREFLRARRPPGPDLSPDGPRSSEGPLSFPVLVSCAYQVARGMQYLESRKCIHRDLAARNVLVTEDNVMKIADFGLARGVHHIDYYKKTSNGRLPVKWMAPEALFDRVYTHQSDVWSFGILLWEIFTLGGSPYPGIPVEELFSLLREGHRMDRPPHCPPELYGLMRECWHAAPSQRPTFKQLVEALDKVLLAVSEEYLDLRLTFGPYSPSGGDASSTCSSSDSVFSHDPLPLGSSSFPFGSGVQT

Sequence of human beta klotho / human FGFR3c on L6 cells (P22607 23-806, one chain of several): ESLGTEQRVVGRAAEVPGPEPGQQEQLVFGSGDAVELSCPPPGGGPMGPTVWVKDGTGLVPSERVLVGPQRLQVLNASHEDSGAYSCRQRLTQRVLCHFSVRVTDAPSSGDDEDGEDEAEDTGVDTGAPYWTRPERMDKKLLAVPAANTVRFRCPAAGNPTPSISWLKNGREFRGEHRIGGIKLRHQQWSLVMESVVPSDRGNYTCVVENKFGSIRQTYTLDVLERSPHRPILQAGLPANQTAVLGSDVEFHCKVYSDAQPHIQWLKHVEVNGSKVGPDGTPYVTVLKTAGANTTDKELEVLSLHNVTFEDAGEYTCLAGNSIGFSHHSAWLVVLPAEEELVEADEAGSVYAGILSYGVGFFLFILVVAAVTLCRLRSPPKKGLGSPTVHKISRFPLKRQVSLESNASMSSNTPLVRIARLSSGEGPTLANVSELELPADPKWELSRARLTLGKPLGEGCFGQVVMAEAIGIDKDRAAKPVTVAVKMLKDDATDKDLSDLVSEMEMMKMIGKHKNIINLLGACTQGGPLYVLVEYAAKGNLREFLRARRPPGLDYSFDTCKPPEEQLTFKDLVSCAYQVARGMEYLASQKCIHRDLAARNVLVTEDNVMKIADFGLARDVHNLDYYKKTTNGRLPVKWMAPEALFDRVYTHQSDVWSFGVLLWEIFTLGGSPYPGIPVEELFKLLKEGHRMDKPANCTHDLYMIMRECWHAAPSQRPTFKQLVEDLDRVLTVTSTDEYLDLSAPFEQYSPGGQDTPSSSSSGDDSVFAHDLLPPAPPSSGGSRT

B1: antibody 3N20 (antibody, V domains shown)
VH: QVQLQESGAELARPGASVKLSCKVSGYIFTNYGISWVKQRTGQGLEWIGEIYPRSGNTYYNEKFKGKATLTADMSSSTAYMDLRSLTSEDSAVYFCARHWDGVLDYFDYWGQGTSLTVSS
VL: DIVMTQSPSSLSVSAGEKVTMSCKSSQSLLNSGNQKNYLAWYQQKPGQPPKLLIYGASTRESGVPDRFTGSGSGTDFTLTISSVQAEDLAVYYCLNDHSYPFTFGAGTKLELK
notes: Murine monoclonal antibody
Regarding B1, the “Mean Florescence Intensity (MFI)” value in test [1] worked out at 2.4 MFI.

B2: antibody 1C17 (antibody, V domains shown)
VH: QVQLQESGPGLVKPSQSLSLTCSVTGYSITSGYYWNWIRQFPGNKLEWMGYINYDGNSNYTPSLKNRISITRDTSKNQFFLKLNSVTPEDTATYYCARKGAYYSNYDSFDVWGTGTTVTVSS
VL: DIKMTQSPSSMYASLGERVTITCKASQDINSYLSWVQQKPGKSPKTLIYRANRLVDGVPSRFSGSGSGQDYSLTISSLEYEDMGIYYCLQYDEFPFTFGSGTKLEIK
notes: Murine monoclonal antibody
Turning to B2, in test [1], the “Mean Florescence Intensity (MFI)” value amounted to 2.4 MFI.

B3: antibody 5F7 (antibody, V domains shown)
VH: QVQPQESGPELVKPGALVKISCKASGYTFTRYDINWVKQRPGQGLEWIGWIYPGDISTKYNEKFKGKATLTADKSSSTAYMQLNSLTSENSAVYFCARSDYYGSRSFVYWGQGTLVTVSA
VL: DIVLTQSPASLAVSLGQRATISCRASKSVSTSGYSYMHWYQQKPGQPPKLLIYLASNLESGVPARFSGSGSGTDFTLNIHPVEEEDAATYYCQHSRELPYTFGGGTKVEIK
notes: Murine monoclonal antibody
For B3, the “Mean Florescence Intensity (MFI)” value in test [1] came out at 2.3 MFI.

B4: antibody 5H23 (antibody, V domains shown)
VH: QVQLQQSGPELVKPGALVKISCKASGYTFTSYDINWVKQRPGQGLEWIGWIYPGDGSTKYNEKFKGKATLTADKSSRTAYMQLSSLTSENSAVYFCARSDYYGSRSFAYWGQGTLVTVSA
VL: DIVLTQSPASLAVSLGQRATISCRASKSVSTSGYVYMHWNQQKPGQPPKLLIYLASYLESGVPARFSGSGSGTDFTLNIHPVEEEDAAIYYCQHSRDLTFPFGGGTKLEIK
notes: Murine monoclonal antibody from hybridoma; also called 5H23-Alexa647 (labelled form)
For the molecule B4, the “Mean Florescence Intensity (MFI)” value in test [1] worked out at 2.3 MFI. Further, the “L6 huKLB/R1c reporter assay EC50” value in test [2] turned out to be 0.28 nM. In test [3], the “L6 huKLB/R3c reporter assay EC50” value was above 67 nM. For the same molecule, the “L6 huKLB/R4 reporter assay EC50” value in test [4] was above 67 nM.

B5: antibody 4P5 (antibody, V domains shown)
VH: QVQLQQSGPELVKPGALVKISCKASGYTFTRYDINWVKKRPGQGLEWIGWIYPGDDSTKYNEKFKGKATLTADKSSSTAYMQLSSLTSENSAVYFCARSDYYGSRSFVYWGQGTLVTVSA
VL: DILLTQSPASLAVSLGQRATISCRASKSVSTSGYSYMHWYQQKPGQPPKLLIYLASNLESGVPARFSGRGSGTDFTLNIHPVEEEDAATYYCHHSGELPYTFGGGTKLEIK
notes: Murine monoclonal antibody
In the case of B5, the “Mean Florescence Intensity (MFI)” value in test [1] came to 2.4 MFI. For the same molecule, the “L6 huKLB/R1c reporter assay EC50” value in test [2] was 0.39 nM. The “L6 huKLB/R3c reporter assay EC50” value in test [3] was above 67 nM. In addition, the “L6 huKLB/R4 reporter assay EC50” value in test [4] was above 67 nM.

B6: antibody 2L12 (antibody, V domains shown)
VH: QVQLQQSGPELVKPGALVKISCKASGYTFTRYDINWVKKRPGQGLEWIGWIYPGDDSTKYNEKFKGKATLTADKSSSTAYMQLSSLTSENSAVYFCARSDYYGSRSFVYWGQGTLVTVSA
VL: DIVLTQSPASLPVSLGQRATISCRASKSVSTSGYSYLHWYQQKPGQPPKLLIYLASNLESGVPARFSGSGSGTDFTLNIHPVEEEDAATYYCQHSGELPYTFGGGTKLEIK
notes: Murine monoclonal antibody
For B6, the “Mean Florescence Intensity (MFI)” value in test [1] worked out at 3.1 MFI. The “L6 huKLB/R1c reporter assay EC50” value in test [2] was found to be 4.65 nM. The “L6 huKLB/R3c reporter assay EC50” value in test [3] is above 67 nM. Moreover, the “L6 huKLB/R4 reporter assay EC50” value in test [4] is above 67 nM.

B7: antibody 1D19 (antibody, V domains shown)
VH: QVQPQESGPELVKPGALVKISCKASGYTFTRYDINWMKQRPGQGLEWIGWIYPGDSSTKFNENFKDKATLTADKSSSTAYMQLSSLTSENSTVYFCARSDYYGSRSFTYWGQGTLVTVSA
VL: DIVLTQSPASLAVSLGQRATISCRASKSVSTSGYSYMHWYQQKPGQPPKLLIYLASNLESGVPARFSGSGSGTDFTLNIHPVEEEDAATYYCQHSRELPYTFGGGTKLEIK
notes: Murine monoclonal antibody
Consider B7, for which the “Mean Florescence Intensity (MFI)” value in test [1] was determined as 2.5 MFI.

B8: antibody 5C23 (antibody, V domains shown)
VH: QVQPQESGPELVKPGALVKISCKASGYTFTRYDINWVKKRPGQGLEWIGWIYPGDGSTKYNEKFEGKATLTADKSSSTAYMQLSSLTSENSAVYFCARSDYYGSRSFVYWGQGTLVTVSA
VL: DIVLTQSPDSLTVSLGQRATISCRASKSVSTSGYSYMHWYQQKPGQPPKLLIYLASNLESGVPARFSGSGSGTDFTLNIHPVEEEDAATYYCQHSRELPYTFGGGTKLEIK
notes: Murine monoclonal antibody
With B8, the “Mean Florescence Intensity (MFI)” value in test [1] turned out to be 2.4 MFI.

B9: antibody 3L3 (antibody, V domains shown)
VH: QVQPQESGPELVKPGTLVKISCKASGYTFTSYDINWVKQRPGQGLEWIGWIYPGDGSPKYDEKFKGKATLTADKSSSTAYMQLSSLTSENSAVYFCARSDYYGSRSFVYWGQGTLVTVSA
VL: DIVLTQSPASLAVSLGQRATISCRASKSVSTSGYSYVHWYQQKPGQPPKLLIYLASNLESGVPARFSGRGSGTDFTLNIHPVEEEDAATYYCQHSGELPYTFGGGTKLEIK
notes: Murine monoclonal antibody
Regarding B9, the “Mean Florescence Intensity (MFI)” value in test [1] was determined as 4.2 MFI.
